# Results as given in patent publication US20070128672A1 (ST VINCENT S HOSPITAL SYDNEY, published 2007).
# Molecular target: tetanus toxoid (UniProt P04958 2-1315)
# Experiment: ELISA, crude Fab supernatant, detected with 9E10
# Chain of tetanus toxoid (P04958 2-457 limits assumed, chain 1 of 2): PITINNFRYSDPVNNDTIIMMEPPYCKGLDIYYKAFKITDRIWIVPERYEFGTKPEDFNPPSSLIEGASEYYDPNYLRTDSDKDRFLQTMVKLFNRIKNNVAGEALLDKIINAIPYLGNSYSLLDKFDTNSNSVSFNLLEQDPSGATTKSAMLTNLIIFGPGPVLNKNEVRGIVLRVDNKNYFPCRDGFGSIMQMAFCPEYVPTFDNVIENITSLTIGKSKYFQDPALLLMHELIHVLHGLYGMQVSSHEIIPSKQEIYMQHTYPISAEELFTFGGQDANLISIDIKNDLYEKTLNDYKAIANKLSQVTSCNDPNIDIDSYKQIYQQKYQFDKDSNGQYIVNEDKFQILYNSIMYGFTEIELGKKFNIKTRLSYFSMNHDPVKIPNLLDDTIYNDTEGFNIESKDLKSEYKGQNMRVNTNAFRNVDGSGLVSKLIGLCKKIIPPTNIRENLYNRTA
# Chain of tetanus toxoid (P04958 458-1315 limits assumed, chain 2 of 2): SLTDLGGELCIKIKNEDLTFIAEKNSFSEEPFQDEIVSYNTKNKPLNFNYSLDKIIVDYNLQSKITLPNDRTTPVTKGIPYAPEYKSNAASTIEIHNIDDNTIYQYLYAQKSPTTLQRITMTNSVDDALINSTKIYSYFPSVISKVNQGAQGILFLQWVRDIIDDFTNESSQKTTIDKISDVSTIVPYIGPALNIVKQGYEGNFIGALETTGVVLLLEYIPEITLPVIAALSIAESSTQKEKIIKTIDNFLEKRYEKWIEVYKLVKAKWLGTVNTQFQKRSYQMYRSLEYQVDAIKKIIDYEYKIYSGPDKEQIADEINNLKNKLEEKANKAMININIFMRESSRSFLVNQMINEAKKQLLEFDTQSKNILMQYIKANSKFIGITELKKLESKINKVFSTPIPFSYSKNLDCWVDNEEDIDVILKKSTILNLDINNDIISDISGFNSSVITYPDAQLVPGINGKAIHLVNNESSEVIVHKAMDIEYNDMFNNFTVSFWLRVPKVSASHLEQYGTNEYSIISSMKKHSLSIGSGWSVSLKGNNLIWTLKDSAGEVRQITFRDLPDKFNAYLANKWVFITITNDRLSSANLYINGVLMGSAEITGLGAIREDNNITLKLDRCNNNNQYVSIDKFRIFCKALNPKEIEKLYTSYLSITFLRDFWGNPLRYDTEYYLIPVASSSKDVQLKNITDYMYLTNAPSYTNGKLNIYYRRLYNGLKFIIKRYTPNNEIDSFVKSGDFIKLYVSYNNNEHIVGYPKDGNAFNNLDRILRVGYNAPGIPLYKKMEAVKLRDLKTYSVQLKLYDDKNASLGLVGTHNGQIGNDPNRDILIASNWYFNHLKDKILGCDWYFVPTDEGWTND
row,Binder,binding result
1,"Fab clone 163.5 (Fab, V domains shown) VH: VQLLEQSGAEVKRPGASVTISCQASRQDFSGQYIHWVRQAPGQGFEWMGIINPSGGSANYAPKFKGRLTMSRDSSTDTVYMTLTSLTSEDTAVYYCLLQALKHWGQGTLVAVSS VL: AAELTQSPDSLAVALGERATINCKSSQSVLYSLNNKNYLAWYQQKPGQPPKLLIHWASTRESGVPDRFSGSGSETDFTLTISSLQAEDVAVYYCQQYYTTPYTFGQGTKLEIK",no binding (tested: antigen coated at 1 µg/ml)
2,"Fab clone 163.17 (Fab, V domains shown, Human IgG1 kappa Fab (MCO1 vector, soluble from E. coli HB2151), myc tag on the C terminus of the heavy chain) VH: VQLLEQSGAEVKRPGASVTISCRASRQDFSGQYIHWVRQAPGQGFEWMGIINPSGGSANYAPKFKGRLTMSRDSSTETVYMTLTSLTSEDTAVYYCLLQALKHWGQGTLVGPSS VL: not shown",no binding (tested: antigen coated at 1 µg/ml)
3,"Fab clone 163.24 (Fab, V domains shown, Human IgG1 kappa Fab (MCO1 vector, soluble from E. coli HB2151), myc tag on the C terminus of the heavy chain) VH: VQLLEQSGAEVKRPGASVTISCQASRQNFSGQYIHWVRQAPGQGLEWMGIINPSGGSANYAPRFKGRLSMSRDSSTDTAYLTLTSLTSEDTAVYFCLLQSLKHWGQGTLVAVSS VL: not shown",no binding (tested: antigen coated at 1 µg/ml)
4,"Fab clone 163.1 (Fab, V domains shown, myc tag on the C terminus of the heavy chain) VH: VQLLEQSGAEMKRPGASVTISCQASRQTFSGQYIHWVRQAPGQGLEWMGVINPSGGSANYAPSFQGRLSMSRDASTNTVYMKLSSLTSEDTAVYYCLSQALKYWGQGTLVAVSS VL: AAELTQSPDSLAVSLGERATINCKSNQSVLYNSNSKNYLAWYQQKPGQPPKLLIYWASTRESGVPDRFSGSGSGTDFTLTITSLQAEDVAVYYCQQYFSSPYTFGQGTKLEIK",no binding (tested: antigen coated at 1 µg/ml)
